# Experimental data reported in US7968297B2, “Method for identification, isolation and production of antigens to a specific pathogen” (Intercell AG, priority 2001, dated 2011).
# System: antibodies in human patient sera
# Experiment: Western blot reactivity of selected clones with human sera
# Assay type: binding
# Conditions: 10 to 30 different human patient sera
# Description: For Western blot analysis approximately 10 to 20 μg of total cellular protein was separated by 10% SDS-PAGE and blotted onto HybondC membrane (Amersham Pharmacia Biotech, England). The LamB or FhuA fusion proteins were detected using human serum as the primary antibody at a dilution of 1:5000 and anti human IgG antibodies coupled to HRP at a dilution of 1:5000 as secondary antibodies. Detection was performed using the ECL detection kit (Amersham Pharmacia Biotech, England). Alternatively, rabbit anti FhuA or mouse anti LamB antibodies were used as primary antibodies in combination with the respective secondary antibodies coupled to HRP for the detection of the fusion proteins.
# Subsequent sequencing of a larger number of randomly picked clones (500 to 800 per screen) led to the identification of the gene and the corresponding peptide or protein sequence that was specifically recognized by the human patient serum used for screening. The frequency with which a specific clone is selected reflects at least in part the abundance and/or affinity of the specific antibodies in the serum used for selection and recognizing the epitope presented by this clone. […] All clones that are presented in Table 2 have been verified by Western blot analysis using whole cellular extracts from single clones to show the indicated reactivity with the pool of human serum used in the screen.
# 10 to 30 different human patient sera were subsequently used to evaluate the presence of antibodies against the selected immunogenic peptide sequences that have been discovered in the screen according to the present invention. To eliminate possible cross-reactivity with proteins expressed by E. coli, all sera were pre-adsorbed with a total cellular lysate of E. coli DHa cells expressing FhuA protein.
# This analysis is summarized in Table 2 and as an example shown in FIG. 4 and is indicative of the validity of the present screen.
row,Molecule,antibodies against selected epitope in patients
1,IgG binding protein A [compound 2548],production of antibodies in a large number of patients
2,"IsaA, possibly adhesion/aggregation (protein, listed as Staphylococcus aureus) MKKTIMASSLAVALGVTGYAAGTGHQAHAAEVNVDQAHLVDLAHNHQDQLNAAPIKDGAYDIHFVKDGFQYNFTSNGTTWSWSYEAANGQTAGFSNVAGADYTTSYNQGSNVQSVSYNAQSSNSNVEAVSAPTYHNYSTSTTSSSVRLSNGNTAGATGSSAAQIMAQRTGVSASTWAAIIARESNGQVNAYNPSGASGLFQTMPGWGPTNTVDQQINAAVKAYKAQGLGAWGF",production of antibodies in a large number of patients
3,"extracellular matrix and plasma binding protein (protein, listed as Staphylococcus aureus) MNSNHAKASVTESVDKKFVVPESGINKIIPAYDEFKNSPKVNVSNLTDNKNFVASEDKLNKIADSSAASKIVDKNFVVPESKLGNIVPEYKEINNRVNVATNNPASQQVDKHFVAKGPEVNRFITQNKVNHHFITTQTHYKKVITSYKSTHVHKHVNHAKDSINKHFIVKPSESPRYTHPSQSLIIKHHFAVPGYHAHKFVTPGHASIKINHFCVVPQINSFKVIPPYGHNSHRMHVPSFQNNTTATHQNAKVNKAYDYKYFYSYKVVKGVKKYFSFSQSNGYKIGKPSLNIKNVNYQYAVPSYSPTHYVPEFKGSLPAPRV",production of antibodies in a large number of patients

# Same assay, conditions: clone and its aa region are named in the cell; prefix A/B/C = screen the clone came from
row,Molecule,Serum reactivity with relevant region (positive/total)
1,"IsaA, possibly adhesion/aggregation (protein, listed as Staphylococcus aureus) MKKTIMASSLAVALGVTGYAAGTGHQAHAAEVNVDQAHLVDLAHNHQDQLNAAPIKDGAYDIHFVKDGFQYNFTSNGTTWSWSYEAANGQTAGFSNVAGADYTTSYNQGSNVQSVSYNAQSSNSNVEAVSAPTYHNYSTSTTSSSVRLSNGNTAGATGSSAAQIMAQRTGVSASTWAAIIARESNGQVNAYNPSGASGLFQTMPGWGPTNTVDQQINAAVKAYKAQGLGAWGF",B: SELAA47(238-259): 12/12
2,"ORF0442 (protein, listed as Staphylococcus epidermidis) MKKIKTISTLVAGLGIAFLGHTTHADAAENNNQQQSTYNYSTTEVSFSNSGNLYTSGQCTWYVYDKTGGKIGSTWGNANSWATAAQAAGFTVNNTPEEGAIMQSSEGAFGHVAFVESVNNDGSITVSEMNYDGGPFAISTRTISASEASSYNYIHLN",C: GSBBM60(65-84): 1/1
3,"ORF2260 (protein, listed as Staphylococcus epidermidis) MARIATKLGYPESNSFVTNTVIEFVLHNEAYPRLYRIKTRDTNLIKISQANEISRQITNGTMTLEEAKYQLEEIYVAKRDSSLPFKGIAAAIIATSFLYLQGGRLVDIITAVLAGTIGYLVVEILDRKLHAQFIPEFIGSLVIGIISVIGHAFVPSGDLATIIIAAVMPIVPGVLITNAIQDLFGGHMLMFTTKSLEALVTAFGIGAGVSSILILV",B: SELAG77(123-142): 12/12
4,"ORF2098 (protein, listed as Staphylococcus epidermidis) MIKKNKEELNDMEYLVTQENGTEPPFQNEYWNHFEKGIYVDKLSGKPLFTSEDKFESNCGWPSFSKALNDDEIVELVDKSFGMIRTEVRSEKANSHLGHVFNDGPKEKGGLRYCINSAAIQFIPYDKLEELGYGDLIKHFKK",A: SEFAQ50(15-57): 5/12
5,"ORF0355 (protein, listed as Staphylococcus epidermidis) MSKHSATLVIMFLITLLPIFQYQASAHATLEKSTPQQQGVIKDKPEAIKLEFNEPVNTKYSSVTLFDDKGKKIKDLKPITTGWSQTVVFSSEQIVNGTNTIEWHTVSADGHEVGDTFEFSVGKVRLKM",C: GSBBL39(63-86): 1/1
6,"ORF0979 (protein, listed as Staphylococcus epidermidis) MMIIVMLILSYLIGAFPSGLIIGKLFFKKDIRQYGSGNTGATNSFRVLGRPAGFIVTFLDIFKGFITVFFPLWFPVHADGVISTFFTNGLIVGLFAILGHVYPIYLKFNGGKAVATSAGVVLGVNPILLLILAIIFFSVLKIFKYVSLSSIIAAISCVIGSIIIHDYILLAVSGIVSIILIIRHKSNIVRIFKGEEPKIKWM",B: SELAH01(26-49): 5/12

# Same assay, conditions: positive sera / total sera tested; clone and its aa region named in the cell
row,Molecule,Serum reactivity with relevant region (positive/total)
1,ARF0280 (VYMLSSTRFIVRWYNNCNKSTNIINERSSGSIKSDGNSSCFFK),SALAM59(25-43): 1/1
2,"ORF2931 (protein, listed as Staphylococcus aureus) MKLKSLAVLSMSAVVLTACGNDTPKDETKSTESNTNQDTNTTKDVIALKDVKTSPEDAVKKAEETYKGQKLKGISFENSNGEWAYKVTQQKSGEESEVLVADKNKKVINKKTEKEDTMNENDNFKYSDAIDYKKAIKEGQKEFDGDIKEWSLEKDDGKLVYNIDLKKGNKKQEVTVDAKNGKVLKSEQDH",E: GSBZA13(22-37): 7/41
3,CRF2155 (protein) ILSAALSTPALLNNTSILPNCSFMSDTKSTTCCSLALSTLYAFALSPLLLILSTVSDTASAMSTANTYAPY,SALAQ54(54-66): 1/12
4,CRF0497 (protein) LLHHLVLLHLSQLILAQLPYQELTLVRKMDSHVLGLYPLIVYVQFQMFPYHRYQNQSIHRFDLQYFH,GSBXF31(19-34): 1/7
5,CRF0145 (protein) FKYKKNRKIPSIMMQQIKITILYSYLTINKWEYLLNITPNKTVLPATGQKELILAVFTMFKVSKSFSLILTYFFGISQLIIGKKSANHVLTKSIIKYSSLYLIILYLGFLLIFSVSQSNVSTSFQLVLY,SALAZ40(81-90): 2/12
6,"ORF1848 (protein, listed as Staphylococcus aureus) MKLKSFVTATLALGLLSTVGAALPSHEASADSNNGYKEMTVDGYHTVPYTISVDGITALHRTYFIFPENKNVLYQEIDSKVKNELASQRGVTTEKINNAQTATYTLTLNDGNKKVVNLKKNDDAKNSIDPSTIKQIQIVVK",E: GSBZB15(75-90): 6/41
7,CRF2349 (protein) SIIVNTVSKCIKVRLVGISIATTFLNVACGFSKIRRANFSIACADVRSETPIAKTSLDKTSSSPPSILNGQSRSNQIGIFASLNLG,GSBXC92(52-67): 2/11
8,CRF1763 (protein) FEATKVPHNGSTLINNALNFNEALICLSLKVNIALIIPKIATIRGIVMLGYCGICKKAPRPAITPHTNAIYRNCFKSFTPKLLLHYYT,C: GSBYI30(1-22): 1/1
9,CRF2729 (protein) GMKMISISDEINCLICCNCVGLCSFISSAKYIFWISISSNTVAKTSIKRGKFLVTARSIRR,SALAQ25(40-56): 1/1
10,"ORF2958 (protein, listed as Staphylococcus aureus) MKMKNIAKISLLLGILATGVNTTTEKPVHAEKKPIVISENSKKLKAYYNQPSIEYKNVTGYISFIQPSIKFMNIIDGNSVNNIALIGKDKQHYHTGVHRNLNIFYVNEDKRFEGAKYSIGGITSANDKAVDLIAEARVIKEDHTGEYDYDFFPFKIDKEAMSLKEIDFKLRKYLIDNYGLYGEMSTGKITVKKKYYGKYTFELDKKLQEDRMSDVINVTDIDRIEIKVIKA",F: SALBB59(154-168): 4/41
